Numbering of substitutions follows the chain as printed.
B1: hGM4/2 (antibody, V domains shown)
VH: EVQLVESGGGLVQPGGSLRLSCAASGFAFSAYDMSWVRQAPGKGLEWVSYISSGGSSFYYPDTVKGRFTISRDNAKNSLYLQMNSLRAEDTAVYYCARHLGFDYWGQGTLVTVSS
VL: DVVMTQSPLSLPVTLGQPASISCRSSQSLVNSNGNTYLHWFQQRPGQSPRRLIYKVSNRFSGVPDRFSGSGSGTDFTLKISRVEAEDVGVYYCSQSTHVPPTFGGGTKVEIK
notes: Heavy h4/20 with human gamma 1 constant (hG1), light h4a with human kappa constant (hKa); also called h4K21-2
B2: hGM4/5 (antibody, V domains shown)
VH: B1 VH with Q13K, P14S, R19T, V37I, R87K, A88D
VL: B1 VL
notes: Heavy h4/50 with human gamma 1 constant (hG1), light h4a with human kappa constant (hKa); also called h4K21-5
B3: hGM4/12 (antibody, V domains shown)
VH: B1 VH
VL: B1 VL with L15P, Q17E, F41Y, Q42L, R44K, R50Q, R51L
notes: Heavy h4/20 with human gamma 1 constant (hG1), light h4c with human kappa constant (hKa); also called h4K21-12
B4: hGM4/13 (antibody, V domains shown)
VH: B1 VH with A23S, S49A, Y80F, N84S, L110T
VL: B1 VL with L15P, Q17E, F41Y, Q42L, R44K, R50Q, R51L
notes: Heavy h4/30 with human gamma 1 constant (hG1), light h4c with human kappa constant (hKa); also called h4K21-13
B5: hGM4/3 (antibody, V domains shown)
VH: B1 VH with A23S, S49A, Y80F, N84S, L110T
VL: B1 VL
notes: Heavy h4/30 with human gamma 1 constant (hG1), light h4a with human kappa constant (hKa); also called h4K21-3; 4K21-3
B6: murine monoclonal antibody 4K21-O11-E14 (antibody, V domains shown)
VH: EVQLVESGGGLVKSGGSLKLSCAASGFAFSAYDMSWVRQTPEKRLELVAYISSGGSSFYYPDTVKGRFTISRDNAKNTLYLQMSSLKSEDTAMYYCTRHLGFDYWGQGTTLTVSS
VL: DVVMTQTPLSLPVSLGDQASISCRSSQSLVNSNGNTYLHWFLQKPGQSPKLLIYKVSNRFSGVPDRFSGSGSGTDFTLKISRVEAEDLGVYFCSQSTHVPPTFGGGTKLEIK
notes: Murine hybridoma antibody (ECACC 07051601); also called 4K21-O11-E14 (mouse); mAb 4K21
B7: hGM4/15 (antibody, V domains shown)
VH: B1 VH with Q13K, P14S, R19T, V37I, R87K, A88D
VL: B1 VL with L15P, Q17E, F41Y, Q42L, R44K, R50Q, R51L
notes: Heavy h4/50 with human gamma 1 constant (hG1), light h4c with human kappa constant (hKa); also called h4K21-15
B8: hGM4/11 (antibody, V domains shown)
VH: B6 VH with E1Q, V5Q, S14P, E42D, L47W, T97A, T110M, L111V
VL: B1 VL with L15P, Q17E, F41Y, Q42L, R44K, R50Q, R51L
B9: hGM4/14 (antibody, V domains shown)
VH: B1 VH with S17F, E46V, S78T, V93M, A97T, R98F, L110T
VL: B1 VL with L15P, Q17E, F41Y, Q42L, R44K, R50Q, R51L
notes: also called h4K21-14; humanised 4K21-14
B10: hGM4/22 (antibody, V domains shown)
VH: B6 VH with E1Q, V5Q, S14P, E42D, L47W, T110M, L111V
VL: B1 VL with L15P, Q17E, F41Y, Q42L, R44K, R50Q, R51L
B11: hGM4/6 (antibody, V domains shown)
VH: B6 VH with E1Q, V5Q, S14P, E42D, L47W, T97A, T110M, L111V
VL: B1 VL with G105Q, V109L
notes: Heavy h4/10 with human gamma 1 constant (hG1), light h4b with human kappa constant (hKa); also called h4K21-6
B12: hGM4/21 (antibody, V domains shown)
VH: B6 VH with E1Q, V5Q, S14P, E42D, T97A, T110M, L111V
VL: B1 VL with L15P, Q17E, F41Y, Q42L, R44K, R50Q, R51L
B13: hGM4/1 (antibody, V domains shown)
VH: B6 VH with E1Q, V5Q, S14P, E42D, L47W, T97A, T110M, L111V
VL: B1 VL
notes: Heavy h4/10 with human gamma 1 constant (hG1), light h4a with human kappa constant (hKa); also called h4K21-1; 4K21-1
B14: hGM4/34 (antibody, V domains shown)
VH: B6 VH with E1Q, V5Q, S14P, E42D, T110M, L111V
VL: B1 VL with L15P, Q17E, F41Y, Q42L, R44K, R50Q, R51L

Columns and labels:
[1] = biological target: T1, recombinant human GM-CSF (Peprotech) (human, UniProt P04141 18-144); test: SPR (BIAcore); recombinant human GM-CSF coupled to CM5 chip, antibody injected at 66.7-4.17 nM
T1 sequence (P04141 18-144 limits assumed): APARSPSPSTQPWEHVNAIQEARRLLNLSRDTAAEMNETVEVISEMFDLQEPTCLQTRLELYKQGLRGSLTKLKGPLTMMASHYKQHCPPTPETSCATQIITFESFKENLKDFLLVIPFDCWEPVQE
Experimental: A second experiment was performed to determine the kinetics with which these antibodies bind to human GM-CSF. A range of antibody concentration was prepared in HBS-EP from 66.7 nM to 4.17 nM with 2-fold serial dilution. Again direct binding was quantitated using recombinant GM-CSF coupled to a CM5 chip—an uncoated flow cell was used as a reference. The antibody at each concentration was injected for 2 minutes with a stabilisation time of 10 minutes and dissociation time of 15 minutes. The BIACore kinetic analysis wizard was run to determine each antibody's association (ka [1/Ms]), dissociation (kd[1/s]) and affinity (KD [nM]) to GM-CSF.

[2] = biological target: T1, recombinant human GM-CSF (Peprotech); test: SPR (BIAcore); recombinant human GM-CSF coated on CM5 chip, antibody injected at 66.7-4.17 nM
Experimental: The binding kinetics of the 4K21 monoclonal antibody was determined using a Biacore and compared with the binding kinetics for a commercially available rat anti-human GM-CSF antibody from BD Biosciences (BD; Cat No. 554501) (see Table 1 below). Recombinant human GM-CSF was coated onto a CM5 chip to determine the binding kinetics of the 4K21 antibody. An uncoated flow cell was used as a reference. The antibody, prepared in HBS-EP at concentrations of 66.7 nM to 4.17 nM with 2-fold serial dilution, was injected for 2 minutes with a stabilisation time of 10 minutes and dissociation time of 15 minutes. The BIACore kinetic analysis wizard was run to determine each antibody's association (ka [1/Ms]), dissociation (kd[1/s]) and affinity (KD [nM]) to GM-CSF.

[3] = biological target: T1, recombinant human GM-CSF (Peprotech); test: BIAcore, recombinant human GM-CSF amine-coupled to a CM5 chip, antibody at 1 ug/ml injected for 3 min
Experimental: The binding affinity of the humanized antibodies was determined by BIACore analysis. Recombinant GM-CSF (Peprotech) at 100 μg/ml was prepared in sodium acetate, pH5, and immobilised to a CM5 sensor chip by amine coupling. Approximately 1200RU bound to the chip. The first experiment was to determine the binding activity of 15 humanized antibodies. These antibodies were prepared in HBS-EP at 1 μg/ml, injected for 3 minutes and compared to murine 4K21 and a commercially available anti GM-CSF antibody (BD).

[4] = biological target: T1, recombinant human GM-CSF (Peprotech); test: cell-based or functional assay

| Ka [1] [M⁻¹] | Kd [1] [nM] | koff [1] [s⁻¹] | kon [1] [M⁻¹ s⁻¹] | EC50, TF-1 cell growth (3H-thymidine) with GM-CSF [4] [nM] | further results | Molecule |
| --- | --- | --- | --- | --- | --- | --- |
| > 5.2e+09 | < 0.19 | < 1e-05 | 52000 |  | Ka [2]: > 5.2e+09 M⁻¹; Kd [2]: < 0.19 nM; koff [2]: < 1e-05 s⁻¹; kon [2]: 52000 M⁻¹ s⁻¹ | commercially available rat anti-human GM-CSF antibody from BD Biosciences (Cat No. 554501) |
| 3.5e+09 | 0.29 | 4.7e-05 | 160000 |  |  | B1 |
| 7.6e+09 | 0.13 | 1.9e-05 | 140000 |  |  | B2 |
|  |  |  |  |  | binding result [3]: binds | B3 |
|  |  |  |  |  | binding result [3]: binds | B4 |
| 7.1e+09 | 0.14 | 3e-05 | 210000 |  |  | B5 |
| > 5.9e+09 | < 0.17 | < 1e-05 | 59000 | 0.311 | Ka [2]: > 5.9e+09 M⁻¹; Kd [2]: < 0.17 nM; koff [2]: < 1e-05 s⁻¹; kon [2]: 59000 M⁻¹ s⁻¹ | B6 |
|  |  |  |  |  | binding result [3]: binds | B7 |
|  |  |  |  | 5.13 |  | B8 |
|  |  |  |  |  | binding result [3]: no binding (tested: 1 ug/ml) | B9 |
|  |  |  |  | 2.12 |  | B10 |
| 1.2e+10 | 0.081 | 1.6e-05 | 200000 |  |  | B11 |
|  |  |  |  | 1.19 |  | B12 |
| 7.7e+09 | 0.13 | 3.8e-05 | 290000 |  |  | B13 |
|  |  |  |  | 0.22 |  | B14 |
